Measurements published in article PMC8629852 (Archives of biochemistry and biophysics, 2021).

Columns and labels:
adrenodoxin = adrenodoxin (UniProt P00257); conditions: cited from earlier work
[1] = target: adrenodoxin (Homo sapiens) (UniProt P10109); assay: microscale thermophoresis; conditions: cited from earlier work
cross-linking = target: the molecule itself; assay: cross-linking

AdR (from UniProt P08165)
Kd (adrenodoxin): 70 nM

P450 27C1 (from UniProt Q4G0S4)
Kd [1]: 220 nM

B1: Human adrenodoxin (Adx), unlabeled (natural protein, UniProt P10109 61-184, looked up)
chain: SSSEDKITVHFINRDGETLTTKGKVGDSLLDVVVENNLDIDGFGACEGTLACSTCHLIFEDHIYEKLDAITDEENDMLDLAYGLTDRSRLGCQICLTKSMDNMTVRVPETVADARQSIDVGKTS
stoichiometry N (cross-linking): 2
